Test system: MS2 coat protein
Assay: apparent KD of MS2 coat protein; designed switch direction (-1 OFF switch, 1 ON switch): 1; higher = weaker reporter binding
In short: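 The buffer was Tris-HCl pH 7.5 with KCl, MgCl2, BSA, DTT, tRNA and Tween-20. In it, SNAP-549-labelled MS2 coat protein was titrated in doubling steps from 0.7 or 1.5 nM to 3 µM over chip-bound RNA switches transcribed by stalled E. coli RNA polymerase on Illumina chips. Apparent KD is the per-design median over clusters of curve fits to normalised fluorescence.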

[1] = input ligand: microRNA oligo, concentration not stated
[2] = Eterna round: R95, input ligand: FMN 200 uM
[3] = Eterna round: R95, input ligand: microRNA oligo, concentration not stated
[4] = Eterna round: R95, input ligand: none

Row | Sequence | apparent KD of MS2 coat protein (input ligand: FMN 200 uM) [nM] | apparent KD of MS2 coat protein [1] [nM] | apparent KD of MS2 coat protein (input ligand: none) [nM] | apparent KD of MS2 coat protein [2] [nM] | apparent KD of MS2 coat protein [3] [nM] | apparent KD of MS2 coat protein [4] [nM]
1 | GAGGGCGGAAACAACAUGAGGAUCACCCAUGUUGCCGAAAGGCAGGAUAUCCGGCGAAAGCAGAAGGAGAAGGGUCGAAAAGAA [AK SSNG3-V2-41] (Eterna round: R96, puzzle: Same State NG 3) | 20.7 | 20 | 24.1 | – | – | –
2 | GGUCCAUCAUGAGGAUAUGGCACCUUAUUGGUGCCAGAAGGCAUGUAAAUUAUAAUAACAUGAGGAUCACCCAUGUAUUGGACC [Eli NG1ss - 95] (Eterna round: R96, puzzle: Same State NG 1) | 44.6 | 218 | 492 | – | – | –
3 | GGAAACAAGAGAGGAUAUGCAGAGGAUCACCCUGCAGAAGGCUCAAAAGAGAGGAUAUGCAGAGGAUCACCCUGCAGAAGGCUC [pwkr ssNG DX.27] (Eterna round: R96, puzzle: Same State NG 1) | 17.8 | 11.2 | 21.4 | – | – | –
4 | GAGAGAUGAUUAGGAUAUACGGUGAUAAUGAUAGUAGAAGGAAUUGACAUGAGGAUCACCCAUGUGGGAAUAAUCCAGAGAGAG [Parity 22 - Jieux - Same State NG 1] (Eterna round: R96, puzzle: Same State NG 1) | 100 | 127 | 162 | – | – | –
5 | GGCUAUCGCGUACGAUAGCUGAAGCGUGUACAUGAGGAUCACCCAUGUCAUGUACAAGCUUUUUGCUCGUCUUAUUG [JL-shm-2.33 JL mod] (puzzle: Sensor for hsa-mir-208a) | – | – | – | 155 | 18.2 | 328
6 | UUACUCAUGUAAGGAUAUGCAGCCGAAACGGCUGCAGAAGGUACUAAAAUACAUGAGGAUCACCCAUGUCUUUUUAAUUUAGAC [Mat - Same State NG 1 - JL mod - D83] (Eterna round: R96, puzzle: Same State NG 1) | 58.4 | 28.4 | 33.3 | – | – | –
7 | GAAUAACAUGAGGAUCACCCAUGUAAUAUAAUGGGAGGAUAUCUGAAUUAAUUAUAUUAAGGAGAAGGCCUAUAUG [Mat - Same State 1 - Mod of Eli - D54] (puzzle: Same State 1) | – | – | – | 51.6 | 204 | 260
8 | UUGCUCAUGUAAGGAUAUGCAGCCGUUUCGGCUGCAGAAGGUACUAUAAUACAUGAGGAUCACCCAUGUCUCUAUUAUUUAGUG [salish99_SSNG1_r04_924] (Eterna round: R96, puzzle: Same State NG 1) | 78.6 | 43.8 | 59.8 | – | – | –
9 | ACUUGCUUUUUGCUCAUCUUAUGUCCGAAACAUGAGGAUCACCCAUGUGUAGAUUAUGUGUUGUUUUUGAUACGUGA [JR_SHM208A_Sub066] (puzzle: Sensor for hsa-mir-208a) | – | – | – | 24.9 | 19 | 26.9
10 | UCAAGGUUUUUGCUCGUUUUAUGUGUUGAACAUGAGGAUCACCCAUGUAUUGUACGAUCCAGUUAGAUGGUGGUUUG [JR_SHM208A_Sub042] (puzzle: Sensor for hsa-mir-208a) | – | – | – | 87.4 | 78.1 | 132
11 | ACAAGACAUGAGGAUCACCCAUGUCCCAAUGACACAGGAUAUCGGUAGGCAUAGCCUACGCGAGAAGGGUGACUUC [Same State 1 - Mod of Vinnie Gere v.1] (puzzle: Same State 1) | – | – | – | 198 | 68.3 | 73
12 | GCUAGAAUUAAUGCUAACAUGAGGAUCACCCAUGUAUGUUGGCAGGAUAUCGUUUGCUUUGCAAACGAGAAGGGCCAUACUAGC [JL SSNG3 1.09] (Eterna round: R96, puzzle: Same State NG 3) | 20 | 14 | 26.3 | – | – | –
13 | UUUGGGUGGCUGGAGGAUAUUCUAGUGGUUACAUGAGGAUCACCCAUGUGUCGCGCGGUACGCGAGGAGAAGGCUGGCGGCCGUU (puzzle: Same State 2) | – | – | – | – | 83.5 | –
14 | GACCGCGAGGGAGGAUAUGGAGCCUUAUUGGCUCCAGAAGGUCCAUAAGGGACAUGAGGAUCACCCAUGUGGGUUGAAGCGGUC [Fiskers NG1ss - 36] (Eterna round: R96, puzzle: Same State NG 1) | – | 108 | – | – | – | –
15 | GCGGAGAGGUCAGGAUAUCCAUGGAAGACACAUGAGGAUCACCCAUGUGGGAGGGAAACCAGGAGGGAGAAGGGACCGGGACGC [ssng2 v2 c] (Eterna round: R96, puzzle: Same State NG 2) | 11.4 | 10.3 | 13.3 | – | – | –
16 | UGAAUAUUCACAGGAUAUGAGUUGUAAAGUGGAUCAGAAGGGUGGGUGUUUUGCACGGUGUGUUACAUGAGGAUCACCCAUGUU [SameState NG1 #24] (Eterna round: R96, puzzle: Same State NG 1) | 205 | 232 | 627 | – | – | –
17 | GCUCGACGUAUUGUUUACAUGAGGAUCACCCAUGUAGGUGCGAAGGAUAUCUACGUGUUUCAUGUAGAGAAGGUCGUGUCGAGC [SameState NG3 #92] (Eterna round: R96, puzzle: Same State NG 3) | 19.3 | 42.5 | 54.1 | – | – | –
18 | GAAAGCAUGGGAGGAUAUAGCCUCUAUGAAAGGCUAGAAGGCCCUGGCCACAUGAGGAUCACCCAUGUGAAAUAAAUAGAAGAA [Raarceza] (Eterna round: R96, puzzle: Same State NG 1) | 28.9 | 96.9 | 218 | – | – | –
19 | AGUCCAGCCAGAGCUGGACAAAAGCAUGUACAUGAGGAUCACCCAUGUCAUGUACAAGCUUUUUGCUCGUCUUAAAA [Mat - hsa-mir-208a - Mod of JL - D2] (puzzle: Sensor for hsa-mir-208a) | – | – | – | 415 | 13.7 | 523
20 | AUAUGAGGAGCAGGAUAUGCGGAGAAGAAAGAAGCAGAAGGGCUCAUGGGACGACAUGAGGAUCACCCAUGUGCUCCGCGAUGA [AK SSNG1-V2-4] (Eterna round: R96, puzzle: Same State NG 1) | 69.9 | 29.5 | 328 | – | – | –
21 | AUUACUAAUGCAGGAUAUGAUUAACAUGAGGAUCACCCAUGUGGUGUUGUGAGUAAGGAGAGUGAUCAGAAGGGCAUUUUUUUU [JMF's solution 29] (Eterna round: R96, puzzle: Same State NG 2) | 518 | 362 | 325 | – | – | –
22 | GUAGCAUACCGAGGAUAUUCAUACCGGAAACGGACAUGAGGAUCACCCAUGUGGCGAAAGCCUUGGGAGAAGGCGGAAUGCUAC [Xeonanis - 20 Mod75] (Eterna round: R96, puzzle: Same State NG 2) | 18.4 | 341 | 675 | – | – | –
23 | CAAGCUUGGGUCUUCCCGCUCGUCUACAAACAUGAGGAUCACCCAUGUAUACUCUUCGCAUCAAUUCUAUCUCUUGG [Onraenbi] (puzzle: Sensor for hsa-mir-208a) | – | – | – | 210 | 23.3 | 272
24 | ACUAGAAACGGGCAAUAACACAUGAGGAUCACCCAUGUGACACAGGAUAUAACCAGAUCAGAAAGUUAGAAGGGUGAGCCCGCA [Edraed] (Eterna round: R96, puzzle: Same State NG 3) | 13.2 | 25.9 | 35 | – | – | –
25 | GAGUAGUUAAAAGGAUAUUGAUUAUUGUAGGAUCAAGAAGGUUUUAACAUGAGGAUCACCCAUGUAGGACUAUUCCUGUGUAUC [Parity 90 - Jieux - Same State NG 1] (Eterna round: R96, puzzle: Same State NG 1) | – | 12 | – | – | – | –
26 | UAGAGAGGAAGCGAGGAUAUCGUGUGAGGAACAUGAGGAUCACCCAUGUGUGAUGUUGAGAGAGACGAGAAGGCGCAGGAAAUUA [JR_SS2_Sub082] (puzzle: Same State 2) | – | – | – | – | 116 | –
27 | GUCAGGUAAGCUUUUUUCUCGUAGUGUAAACAUGAGGAUCACCCAUGUGCUCACCCUGGAUCUUUGGAUCGCAGAAA [Atormace] (puzzle: Sensor for hsa-mir-208a) | – | – | – | 16.5 | 14.3 | 17.1
28 | GGAGUCGGCACUGAGGAUAUUCAUAUUUAAACAUGAGGAUCACCCAUGUAGGCCAGAAGGCCUUGGGAGAAGGCAGGUCGGCUCG [salish99_ss2_r3_084] (puzzle: Same State 2) | – | – | – | 22.5 | 154 | 241

— the supplement of paper PMC9170038
